Assay results as given in patent CN117736312A (SHANGHAI BOVAX BIOLOGICAL SCIENCE & TECH CO LTD, dated 2024).

Tests used:
Test in all cases: sandwich ELISA (rabbit anti-L1 capture)
[1] = biological target: T1, HPV33L1 (human papillomavirus type 33, UniProt P06416 1-499)
T1 sequence: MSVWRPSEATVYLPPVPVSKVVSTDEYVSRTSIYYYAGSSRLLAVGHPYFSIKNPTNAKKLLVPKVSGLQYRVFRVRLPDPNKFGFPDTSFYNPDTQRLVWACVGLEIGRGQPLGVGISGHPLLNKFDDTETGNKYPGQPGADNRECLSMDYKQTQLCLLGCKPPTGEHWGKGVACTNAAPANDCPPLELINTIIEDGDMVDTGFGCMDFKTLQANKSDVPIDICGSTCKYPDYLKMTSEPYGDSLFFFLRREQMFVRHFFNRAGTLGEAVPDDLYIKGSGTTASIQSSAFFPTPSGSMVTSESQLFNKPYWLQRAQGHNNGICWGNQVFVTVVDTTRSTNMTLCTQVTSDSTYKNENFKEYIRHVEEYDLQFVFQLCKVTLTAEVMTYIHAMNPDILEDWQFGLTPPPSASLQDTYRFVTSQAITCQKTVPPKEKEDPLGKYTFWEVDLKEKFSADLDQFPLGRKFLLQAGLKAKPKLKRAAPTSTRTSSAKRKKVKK

[2] = biological target: T2, HPV45L1 (human papillomavirus type 45, UniProt P36741 30-539)
T2 sequence: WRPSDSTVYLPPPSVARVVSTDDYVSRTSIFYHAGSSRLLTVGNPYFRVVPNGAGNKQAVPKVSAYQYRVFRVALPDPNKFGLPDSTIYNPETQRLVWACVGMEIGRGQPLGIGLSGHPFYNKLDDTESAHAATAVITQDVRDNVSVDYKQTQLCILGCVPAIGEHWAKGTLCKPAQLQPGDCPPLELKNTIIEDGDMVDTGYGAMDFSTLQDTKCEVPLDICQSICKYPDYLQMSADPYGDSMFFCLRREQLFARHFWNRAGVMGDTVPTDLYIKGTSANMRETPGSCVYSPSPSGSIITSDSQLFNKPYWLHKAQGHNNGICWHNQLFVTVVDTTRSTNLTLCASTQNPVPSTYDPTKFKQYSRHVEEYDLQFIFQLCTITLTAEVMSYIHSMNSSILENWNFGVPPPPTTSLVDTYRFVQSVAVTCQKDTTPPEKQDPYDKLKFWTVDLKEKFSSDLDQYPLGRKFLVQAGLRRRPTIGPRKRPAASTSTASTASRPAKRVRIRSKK

[3] = biological target: T3, HPV51L1 (human papillomavirus type 51, UniProt P26536 1-504)
T3 sequence: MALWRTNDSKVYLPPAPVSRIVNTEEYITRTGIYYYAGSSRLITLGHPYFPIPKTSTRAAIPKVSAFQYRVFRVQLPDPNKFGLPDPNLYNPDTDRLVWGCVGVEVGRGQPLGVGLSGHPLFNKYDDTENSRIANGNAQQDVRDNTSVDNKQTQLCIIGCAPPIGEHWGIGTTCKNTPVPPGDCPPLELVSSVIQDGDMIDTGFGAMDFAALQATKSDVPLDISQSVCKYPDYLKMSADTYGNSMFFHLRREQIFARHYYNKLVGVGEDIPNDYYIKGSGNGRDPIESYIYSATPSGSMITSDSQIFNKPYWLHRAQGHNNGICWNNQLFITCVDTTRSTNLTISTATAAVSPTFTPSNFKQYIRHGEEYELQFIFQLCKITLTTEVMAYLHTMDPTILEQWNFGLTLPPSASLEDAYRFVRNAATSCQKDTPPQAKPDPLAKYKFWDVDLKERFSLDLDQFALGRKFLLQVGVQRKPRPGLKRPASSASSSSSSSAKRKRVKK

[4] = biological target: T4, HPV18L1 (human papillomavirus type 18, UniProt P06794 62-568)
T4 sequence: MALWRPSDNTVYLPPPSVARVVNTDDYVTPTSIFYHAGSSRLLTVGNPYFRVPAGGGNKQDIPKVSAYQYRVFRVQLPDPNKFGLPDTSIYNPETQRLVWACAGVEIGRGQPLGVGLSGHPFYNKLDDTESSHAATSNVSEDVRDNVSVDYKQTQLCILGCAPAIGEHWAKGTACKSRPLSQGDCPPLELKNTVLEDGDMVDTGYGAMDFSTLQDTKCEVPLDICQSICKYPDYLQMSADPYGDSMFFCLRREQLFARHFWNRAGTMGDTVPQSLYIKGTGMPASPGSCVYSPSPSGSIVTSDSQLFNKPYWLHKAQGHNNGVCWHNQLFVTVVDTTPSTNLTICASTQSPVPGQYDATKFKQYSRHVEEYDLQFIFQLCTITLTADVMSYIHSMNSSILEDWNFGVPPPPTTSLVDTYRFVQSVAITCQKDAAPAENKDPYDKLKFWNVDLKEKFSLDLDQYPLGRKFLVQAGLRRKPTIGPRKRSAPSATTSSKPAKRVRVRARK

[5] = biological target: T5, HPV58L1 (human papillomavirus type 58, UniProt P26535 27-524)
T5 sequence: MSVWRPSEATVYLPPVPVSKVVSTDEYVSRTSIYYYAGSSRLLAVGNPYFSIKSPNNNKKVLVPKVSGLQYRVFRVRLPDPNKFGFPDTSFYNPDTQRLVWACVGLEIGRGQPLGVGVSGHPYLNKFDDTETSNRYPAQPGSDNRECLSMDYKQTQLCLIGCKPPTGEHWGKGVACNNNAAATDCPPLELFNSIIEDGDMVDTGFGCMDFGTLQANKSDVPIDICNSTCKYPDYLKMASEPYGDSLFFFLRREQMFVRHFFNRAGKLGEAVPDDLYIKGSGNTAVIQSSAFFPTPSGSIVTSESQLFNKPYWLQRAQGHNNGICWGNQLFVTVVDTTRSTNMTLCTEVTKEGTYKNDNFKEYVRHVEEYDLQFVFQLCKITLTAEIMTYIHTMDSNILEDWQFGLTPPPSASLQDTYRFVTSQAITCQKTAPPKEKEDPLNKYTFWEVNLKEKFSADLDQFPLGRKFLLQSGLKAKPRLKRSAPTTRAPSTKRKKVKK

B1: HPV 59编号为30单克隆抗体 (antibody, V domains shown)
VH: QIQLVQSGPELKKPGETVKISCKASGYTFTDYSMHWVKQAPGKGLKWMGWINTETGEPTYADDFKGRFAFSLETSASTAYLQINNLKIEDTATYFCTRDGYVWYFDVWGAGTTVTVSS
VL: QIVLSQSPAILSASPGEKVTMTCRASSSVNYMHWYQQKPGSSPKPWIYATSNLASGVPARFSGSGSGTSYSLTISRVEAEDAATYYCQQWSSNPIFTFGSGTKLEIK
notes: Mouse hybridoma antibody tested as cell supernatant; also called 59H30
binding result [1]: no binding (tested: 原液40μg/ml; 细胞上清1:100)
binding result [2]: no binding (tested: 原液40μg/ml; 细胞上清1:100)
binding result [3]: no binding (tested: 原液40μg/ml; 细胞上清1:100)
binding result [4]: no binding (tested: 原液40μg/ml; 细胞上清1:100)
binding result [5]: no binding (tested: 原液40μg/ml; 细胞上清1:100)
